Experimental findings from article PMC5105194 are described below.

The target in experiment [1] is retromer cargo selective complex VPS26/VPS29/VPS35 (UniProt Q96QK1). As to the kind of experiment: ITC; TBC proteins (100∼200 μM) injected into retromer proteins (8–16 μM); 20 °C; 20 mM Tris pH 8, 200 mM NaCl, 5 mM βME; one set of sites model. On the technique in general: In ITC the heat of successive injections is recorded.
Experiment [2] deals with AlexaFluor488-labelled Rab7-GMPPNP (aa 1–186-Cys and Cys143Ser) (UniProt P51149). As to the kind of experiment: fluorescence polarisation; fluorescence anisotropy, direct binding: proteins titrated into 50 nM AlexaFluor488-labelled Rab7-GMPPNP; 20 °C; 20 mM Tris pH 8.0, 100 mM NaCl, 2 mM MgCl2, 5 mM βME; single-site 1:1 model.
AlexaFluor488-labelled Rab7-GMPPNP (aa 1–186-Cys and Cys143Ser), sequence (P51149 other isoform, or with tags, fused parts or gaps C143S): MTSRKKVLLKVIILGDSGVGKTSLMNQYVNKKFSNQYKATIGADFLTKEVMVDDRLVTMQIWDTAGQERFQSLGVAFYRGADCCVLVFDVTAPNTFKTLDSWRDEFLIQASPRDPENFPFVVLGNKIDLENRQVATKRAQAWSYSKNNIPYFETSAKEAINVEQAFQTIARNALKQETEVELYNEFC
A further experiment addresses TBC1d5^TBC/CSC complex (UniProt Q96QK1). Description: fluorescence polarisation; fluorescence anisotropy, competition: unlabelled Rab7-GMPPNP titrated into 8 μM TBC1d5/CSC and 50 nM labelled Rab7-GMPPNP; 20 °C; competitive binding one-site model. A general note: In fluorescence polarisation assays a small probe gives low polarisation when free and higher when bound to something large.

pKd: −log10 of the molar value.

TBC1d5^TBC, sequence (Q92609 whole entry, the tested form may be a part): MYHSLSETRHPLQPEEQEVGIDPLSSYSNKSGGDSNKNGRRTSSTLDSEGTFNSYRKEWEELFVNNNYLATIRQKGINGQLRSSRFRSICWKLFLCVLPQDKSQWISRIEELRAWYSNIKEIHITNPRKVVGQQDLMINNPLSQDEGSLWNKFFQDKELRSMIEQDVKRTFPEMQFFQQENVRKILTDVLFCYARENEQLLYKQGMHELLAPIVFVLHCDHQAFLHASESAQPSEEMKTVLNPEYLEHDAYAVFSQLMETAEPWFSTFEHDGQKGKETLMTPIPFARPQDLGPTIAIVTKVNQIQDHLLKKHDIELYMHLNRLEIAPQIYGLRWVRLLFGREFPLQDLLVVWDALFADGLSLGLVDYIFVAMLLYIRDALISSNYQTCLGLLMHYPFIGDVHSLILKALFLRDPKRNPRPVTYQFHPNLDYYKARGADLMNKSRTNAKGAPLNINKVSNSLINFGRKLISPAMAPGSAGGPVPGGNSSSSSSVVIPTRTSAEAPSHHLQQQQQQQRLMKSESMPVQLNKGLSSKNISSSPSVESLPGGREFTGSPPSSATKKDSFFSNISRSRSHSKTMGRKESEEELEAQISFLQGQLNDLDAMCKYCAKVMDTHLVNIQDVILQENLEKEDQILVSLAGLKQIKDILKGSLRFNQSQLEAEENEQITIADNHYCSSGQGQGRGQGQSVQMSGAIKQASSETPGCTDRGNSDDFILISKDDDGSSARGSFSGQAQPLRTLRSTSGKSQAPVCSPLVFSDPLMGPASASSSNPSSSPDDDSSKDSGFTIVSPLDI

The pKd is −log10 of the Kd, conventionally taken in molar units. Higher therefore signals a small Kd. By stoichiometry N is commonly meant a count of units in the complex or per binding partner. For the substance “TBC1d5^TBC (from UniProt Q92609 1-795) (domain or fragment)”, in experiment [1], the negative logarithm of the Kd (pKd) was 6.66 and the stoichiometry N was 1.

In experiment [2], “TBC1d5^TBC/CSC complex (from UniProt Q96QK1 1-796; Q9UBQ0 1-182; O75436 1-327)” showed a pKd of 4.94.

Turning to “unlabelled Rab7-GMPPNP (from UniProt P51149 1-86) (natural protein)”, in the experiment with TBC1d5^TBC/CSC complex, the negative logarithm of the Kd (pKd) was 4.44.
